Reference: the supplement of paper PMC9112550, “Optimization of the antimicrobial peptide Bac7 by deep mutational scanning” (BMC Biology, 2022)

Tested on: Escherichia coli TOP10
Assay: shrunken log2 fold change of peptide-encoding DNA abundance (4.5 h post-induction vs induction); higher = less antimicrobial activity (less host growth inhibition)
Details: time post-induction: 4.5 h; library: site-saturation at positions 5, 18, 19, 20
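Further: peptides expressed intracellularly from a pBAD plasmid library in pooled LB shake-flask culture, induced with 0.3% L-arabinose, DNA abundance read by NGS, three biological replicates, DESeq2 with apeglm shrinkage.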

Sequence	shrunken log2 fold change
RRIRFRPPRLPRPRPRPVNIPRP	-0.16
RRIRQRPPRLPRPRPRPSGKPRP	-0.147
RRIRNRPPRLPRPRPRPAATPRP	0.285
RRIRKRPPRLPRPRPRPGHKPRP	0.193
RRIRGRPPRLPRPRPRPWWKPRP	0.0639
RRIRWRPPRLPRPRPRPCKLPRP	-0.694
RRIRLRPPRLPRPRPRPCDRPRP	-0.114
RRIRRRPPRLPRPRPRPGNYPRP	-0.0441
RRIRPRPPRLPRPRPRPMSRPRP	-0.0311
RRIRFRPPRLPRPRPRPRMEPRP	-0.00899
RRIRTRPPRLPRPRPRPSFTPRP	-0.867
RRIRCRPPRLPRPRPRPVHQPRP	0.11
RRIRQRPPRLPRPRPRPNKYPRP	-0.686
RRIRARPPRLPRPRPRPFEYPRP	-0.0276
RRIRYRPPRLPRPRPRPMSAPRP	-0.0208
RRIRDRPPRLPRPRPRPMMWPRP	0.156
RRIRQRPPRLPRPRPRPFPRPRP	-0.122
RRIRSRPPRLPRPRPRPSHAPRP	-0.449
RRIRIRPPRLPRPRPRPEQYPRP	-0.0765
RRIRFRPPRLPRPRPRPWMLPRP	-0.277
RRIRHRPPRLPRPRPRPAMAPRP	0.126
RRIRWRPPRLPRPRPRPGIFPRP	0.0995
RRIRQRPPRLPRPRPRPDQCPRP	-0.0972
RRIRDRPPRLPRPRPRPTSNPRP	0.24
RRIRNRPPRLPRPRPRPSHPPRP	0.186

Sequence	shrunken log2 fold change
RRIRVRPPRLPRPRPRPKEKPRP	-0.0337
RRIRTRPPRLPRPRPRPNHYPRP	-0.679
RRIRWRPPRLPRPRPRPMRDPRP	0.814
RRIRWRPPRLPRPRPRPMRHPRP	0.228
RRIRRRPPRLPRPRPRPNESPRP	0.137
RRIRRRPPRLPRPRPRPWYSPRP	-0.0705
RRIRHRPPRLPRPRPRPHINPRP	-0.563
RRIRRRPPRLPRPRPRPNLWPRP	0.552
RRIRLRPPRLPRPRPRPFKAPRP	0.181
RRIRHRPPRLPRPRPRPGFQPRP	-0.0167
RRIRRRPPRLPRPRPRPCEWPRP	-0.0585
RRIRIRPPRLPRPRPRPWIWPRP	-0.109
RRIRFRPPRLPRPRPRPKWSPRP	0.321
RRIRSRPPRLPRPRPRPLLQPRP	-0.227
RRIRYRPPRLPRPRPRPVPYPRP	-0.0727
RRIRLRPPRLPRPRPRPDRYPRP	-0.063
RRIRPRPPRLPRPRPRPGRGPRP	0.611
RRIRMRPPRLPRPRPRPPHKPRP	0.585
RRIRPRPPRLPRPRPRPILYPRP	-0.299
RRIRPRPPRLPRPRPRPWKRPRP	-0.0317
RRIRYRPPRLPRPRPRPNTHPRP	-1.02
RRIRKRPPRLPRPRPRPVQSPRP	0.00205
RRIRWRPPRLPRPRPRPMGWPRP	0.299
RRIRDRPPRLPRPRPRPRFKPRP	-0.0405
RRIRMRPPRLPRPRPRPECFPRP	1.35

Sequence	shrunken log2 fold change
RRIRARPPRLPRPRPRPKTYPRP	-0.214
RRIRYRPPRLPRPRPRPNEPPRP	0.00196
RRIRSRPPRLPRPRPRPKMRPRP	0.269
RRIRKRPPRLPRPRPRPKANPRP	0.768
RRIRWRPPRLPRPRPRPCIMPRP	-0.339
RRIRGRPPRLPRPRPRPMAMPRP	0.138
RRIRCRPPRLPRPRPRPEGHPRP	0.38
RRIRNRPPRLPRPRPRPGALPRP	0.0726
RRIRFRPPRLPRPRPRPDWRPRP	0.0737
RRIRERPPRLPRPRPRPLGKPRP	0.189
RRIRTRPPRLPRPRPRPFHTPRP	-0.932
RRIRSRPPRLPRPRPRPHGEPRP	-0.0153
RRIRNRPPRLPRPRPRPWCSPRP	-0.535
RRIRERPPRLPRPRPRPAHRPRP	0.0394
RRIRCRPPRLPRPRPRPMTIPRP	-0.128
RRIRNRPPRLPRPRPRPNYIPRP	-0.318
RRIRWRPPRLPRPRPRPKHYPRP	0.473
RRIRDRPPRLPRPRPRPPTIPRP	0.0394
RRIRQRPPRLPRPRPRPMSIPRP	-0.00929
RRIRIRPPRLPRPRPRPRAEPRP	-0.202
RRIRIRPPRLPRPRPRPNPHPRP	-0.581
RRIRWRPPRLPRPRPRPPGSPRP	0.333
RRIRFRPPRLPRPRPRPFVMPRP	-1.05
RRIRERPPRLPRPRPRPRCDPRP	-0.044
RRIRCRPPRLPRPRPRPYSTPRP	-0.818

Sequence	shrunken log2 fold change
RRIRWRPPRLPRPRPRPHGTPRP	-0.137
RRIRFRPPRLPRPRPRPVAEPRP	0.256
RRIRWRPPRLPRPRPRPNSCPRP	0.0578
RRIRVRPPRLPRPRPRPEQVPRP	0.0835
RRIRSRPPRLPRPRPRPIPAPRP	-0.286
RRIRHRPPRLPRPRPRPRQSPRP	0.144
RRIRHRPPRLPRPRPRPEPCPRP	0.0696
RRIRQRPPRLPRPRPRPMFYPRP	-0.503
RRIRDRPPRLPRPRPRPAFMPRP	0.699
RRIRPRPPRLPRPRPRPEISPRP	-0.00759
RRIRLRPPRLPRPRPRPIAHPRP	-0.058
RRIRFRPPRLPRPRPRPAVFPRP	0.259
RRIRYRPPRLPRPRPRPMKMPRP	-0.528
RRIRIRPPRLPRPRPRPTKYPRP	-0.681
RRIRSRPPRLPRPRPRPHQLPRP	-0.201
RRIRLRPPRLPRPRPRPRRAPRP	0.585
RRIRGRPPRLPRPRPRPYEGPRP	-0.199
RRIRVRPPRLPRPRPRPLIAPRP	-0.0308
RRIRKRPPRLPRPRPRPNWLPRP	0.246
RRIRRRPPRLPRPRPRPNYSPRP	-0.0871
RRIRHRPPRLPRPRPRPVSRPRP	-0.0482
RRIRVRPPRLPRPRPRPMEVPRP	-0.997
RRIRLRPPRLPRPRPRPSMRPRP	0.421
RRIRARPPRLPRPRPRPWMPPRP	-0.216
RRIRHRPPRLPRPRPRPTRYPRP	-0.453

Sequence	shrunken log2 fold change
RRIRFRPPRLPRPRPRPADCPRP	-0.282
RRIRDRPPRLPRPRPRPETQPRP	0.476
RRIRYRPPRLPRPRPRPCCDPRP	-0.479
RRIRHRPPRLPRPRPRPSRIPRP	0.111
RRIRARPPRLPRPRPRPWLSPRP	0.18
RRIRFRPPRLPRPRPRPHWQPRP	-0.119
RRIRMRPPRLPRPRPRPKCIPRP	-0.113
RRIRNRPPRLPRPRPRPTHTPRP	-0.191
RRIRWRPPRLPRPRPRPEYSPRP	0.0675
RRIRCRPPRLPRPRPRPQKKPRP	-0.0243
RRIRPRPPRLPRPRPRPRDDPRP	0.23
RRIRFRPPRLPRPRPRPPSAPRP	0.703
RRIRLRPPRLPRPRPRPKRGPRP	0.483
RRIRCRPPRLPRPRPRPTFVPRP	-0.161
RRIRHRPPRLPRPRPRPECTPRP	0.154
RRIRNRPPRLPRPRPRPKFKPRP	-0.508
RRIRCRPPRLPRPRPRPMWPPRP	0.481
RRIRSRPPRLPRPRPRPCCIPRP	-0.197
RRIRCRPPRLPRPRPRPDAVPRP	0.0365
RRIRWRPPRLPRPRPRPCAMPRP	-0.272
RRIRERPPRLPRPRPRPSGMPRP	-0.46
RRIRGRPPRLPRPRPRPDNCPRP	-0.0626
RRIRHRPPRLPRPRPRPGDCPRP	-0.0887
RRIRNRPPRLPRPRPRPSYAPRP	-0.387
RRIRQRPPRLPRPRPRPFMAPRP	-0.61

Sequence	shrunken log2 fold change
RRIRWRPPRLPRPRPRPNVWPRP	-0.308
RRIRPRPPRLPRPRPRPSDMPRP	-0.273
RRIRIRPPRLPRPRPRPYHQPRP	0.0196
RRIRSRPPRLPRPRPRPLFWPRP	0.132
RRIRKRPPRLPRPRPRPDCNPRP	-0.00139
RRIRARPPRLPRPRPRPKFLPRP	0.288
RRIRDRPPRLPRPRPRPCKDPRP	-0.144
RRIRHRPPRLPRPRPRPFNHPRP	-0.372
RRIRKRPPRLPRPRPRPVGRPRP	0.21
RRIRNRPPRLPRPRPRPEQFPRP	-0.0122
RRIRWRPPRLPRPRPRPECVPRP	1.26
RRIRLRPPRLPRPRPRPYGPPRP	-0.161
RRIRSRPPRLPRPRPRPGLYPRP	-0.106
RRIRSRPPRLPRPRPRPNTKPRP	-0.259
RRIRYRPPRLPRPRPRPPSIPRP	-0.285
RRIRHRPPRLPRPRPRPAWHPRP	-0.132
RRIRYRPPRLPRPRPRPEAKPRP	-0.109
RRIRGRPPRLPRPRPRPINWPRP	0.193
RRIRMRPPRLPRPRPRPKRWPRP	1.51
RRIRGRPPRLPRPRPRPETHPRP	2.22
RRIRDRPPRLPRPRPRPHNKPRP	-0.373
RRIRPRPPRLPRPRPRPAFCPRP	0.104
RRIRDRPPRLPRPRPRPMPEPRP	0.0845
RRIRRRPPRLPRPRPRPHDMPRP	-0.103
RRIRDRPPRLPRPRPRPVHCPRP	-0.0301
